Results on 21 molecules are retold here after patent US20120045438A1 (Janssen / Centocor, published 2012).

For the experiment, the target named is T1, human IL-13 R130Q variant (R110Q of the mature chain) (human, UniProt P35225 35-146, Biotinylated on amines (NHS-LC-biotin, 4:1) in ELISA, panning and competition assays. The letters are unchanged.).
T1 construct: R130Q counts from Met 1 of the signal peptide, R110Q on the mature chain; Bought from Peprotech; also called IL-13 R110Q; b-R130Q
Briefly: single-point (10 nM) phage Fab ELISA on biotinylated IL-13 R130Q. For orientation: In an ELISA, binding on a coated surface is turned into a signal by an enzyme label.

B1: Phage # 54 Fab (IL-13-142 library) (Fab, V domains shown)
VH: QVTLKESGPVLVKPTETLTLTCTVSGFSLSTYGMGVGWIRQPPGKALEWLAHIWWDDVKRYNPALKSRLTISKDTSKSQVVLTMTNMDPVDTATYYCARMGSDYDVWFDYWGQGTLVTVSS
VL: DIQMTQSPSTLSASVGDRVTITCRASKSISKYLAWYQQKPGKAPKLLIYSGSTLQSGVPSRFSGSGSGTEFTLTISSLQPDDFATYYCQQHDWGPYTFGGGTKVEIK
notes: Fab on phage pIX
On to B1, for which the “% of Lc16Hc7” value is 361%.

B2: Phage # 15 Fab (IL-13-142 library) (Fab, V domains shown)
VH: QVTLKESGPVLVKPTETLTLTCTVSGFSLSTYGMGVGWIRQPPGKALEWLAHIWWDDVKRYNPALKSRLTISKDTSKSQVVLTMTNMDPVDTATYYCARMGSDYDVWFDYWGQGTLVTVSS
VL: DIQMTQSPSTLSASVGDRVTITCRASKSISKYLAWYQQKPGKAPKLLIYSGSTLQSGVPSRFSGSGSGTEFTLTISSLQPDDFATYYCQQPLDAPYTFGGGTKVEIK
notes: Fab on phage pIX
As for B2, the “% of Lc16Hc7” value was found to be 154%.

B3: Phage # 29 Fab (IL-13-142 library) (Fab, V domains shown)
VH: QVTLKESGPVLVKPTETLTLTCTVSGFSLSTYGMGVGWIRQPPGKALEWLAHIWWDDVKRYNPALKSRLTISKDTSKSQVVLTMTNMDPVDTATYYCARMGSDYDVWFDYWGQGTLVTVSS
VL: DIQMTQSPSTLSASVGDRVTITCRASKSISKYLAWYQQKPGKAPKLLIYSGSTLQSGVPSRFSGSGSGTEFTLTISSLQPDDFATYYCQQHWMAPYTFGGGTKVEIK
notes: Fab on phage pIX
For the molecule B3, the “% of Lc16Hc7” value came out at 182%.

B4: Phage # 06 Fab (IL-13-142 library) (Fab, V domains shown)
VH: QVTLKESGPVLVKPTETLTLTCTVSGFSLSTYGMGVGWIRQPPGKALEWLAHIWWDDVKRYNPALKSRLTISKDTSKSQVVLTMTNMDPVDTATYYCARMGSDYDVWFDYWGQGTLVTVSS
VL: DIQMTQSPSTLSASVGDRVTITCRASKSISKYLAWYQQKPGKAPKLLIYSGSTLQSGVPSRFSGSGSGTEFTLTISSLQPDDFATYYCQQPLTHPYTFGGGTKVEIK
notes: Fab on phage pIX
As for B4, the “% of Lc16Hc7” value came to 232%.

B5: Phage # 27 Fab (IL-13-142 library) (Fab, V domains shown)
VH: QVTLKESGPVLVKPTETLTLTCTVSGFSLSTYGMGVGWIRQPPGKALEWLAHIWWDDVKRYNPALKSRLTISKDTSKSQVVLTMTNMDPVDTATYYCARMGSDYDVWFDYWGQGTLVTVSS
VL: DIQMTQSPSTLSASVGDRVTITCRASKSISKYLAWYQQKPGKAPKLLIYSGSTLQSGVPSRFSGSGSGTEFTLTISSLQPDDFATYYCQQHNDSPYTFGGGTKVEIK
notes: Fab on phage pIX
As for B5, the “% of Lc16Hc7” value was found to be 238%.

B6: Phage # 10 Fab (IL-13-142 library) (Fab, V domains shown)
VH: QVTLKESGPVLVKPTETLTLTCTVSGFSLSTYGMGVGWIRQPPGKALEWLAHIWWDDVKRYNPALKSRLTISKDTSKSQVVLTMTNMDPVDTATYYCARMGSDYDVWFDYWGQGTLVTVSS
VL: DIQMTQSPSTLSASVGDRVTITCRASKSISKYLAWYQQKPGKAPKLLIYSGSTLQSGVPSRFSGSGSGTEFTLTISSLQPDDFATYYCQQHLWGPYTFGGGTKVEIK
notes: Fab on phage pIX
Take B6: the “% of Lc16Hc7” value worked out at 318%.

B7: Phage # 11 Fab (IL-13-142 library) (Fab, V domains shown)
VH: QVTLKESGPVLVKPTETLTLTCTVSGFSLSTYGMGVGWIRQPPGKALEWLAHIWWDDVKRYNPALKSRLTISKDTSKSQVVLTMTNMDPVDTATYYCARMGSDYDVWFDYWGQGTLVTVSS
VL: DIQMTQSPSTLSASVGDRVTITCRASKSISKYLAWYQQKPGKAPKLLIYSGSTLQSGVPSRFSGSGSGTEFTLTISSLQPDDFATYYCQQQDVGPYTFGGGTKVEIK
notes: Fab on phage pIX
B7: the “% of Lc16Hc7” value was 229%.

B8: Phage # 01 Fab (IL-13-142 library) (Fab, V domains shown)
VH: QVTLKESGPVLVKPTETLTLTCTVSGFSLSTYGMGVGWIRQPPGKALEWLAHIWWDDVKRYNPALKSRLTISKDTSKSQVVLTMTNMDPVDTATYYCARMGSDYDVWFDYWGQGTLVTVSS
VL: DIQMTQSPSTLSASVGDRVTITCRASKSISKYLAWYQQKPGKAPKLLIYSGSTLQSGVPSRFSGSGSGTEFTLTISSLQPDDFATYYCQQHWWGPYTFGGGTKVEIK
notes: Fab on phage pIX
Consider B8, for which the “% of Lc16Hc7” value is 222%.

B9: Phage # 22 Fab (IL-13-142 library) (Fab, V domains shown)
VH: QVTLKESGPVLVKPTETLTLTCTVSGFSLSTYGMGVGWIRQPPGKALEWLAHIWWDDVKRYNPALKSRLTISKDTSKSQVVLTMTNMDPVDTATYYCARMGSDYDVWFDYWGQGTLVTVSS
VL: DIQMTQSPSTLSASVGDRVTITCRASKSISKYLAWYQQKPGKAPKLLIYSGSTLQSGVPSRFSGSGSGTEFTLTISSLQPDDFATYYCQQHDPGPYTFGGGTKVEIK
notes: Fab on phage pIX
B9: the “% of Lc16Hc7” value amounted to 313%.

B10: Phage # 30 Fab (IL-13-142 library) (Fab, V domains shown)
VH: QVTLKESGPVLVKPTETLTLTCTVSGFSLSTYGMGVGWIRQPPGKALEWLAHIWWDDVKRYNPALKSRLTISKDTSKSQVVLTMTNMDPVDTATYYCARMGSDYDVWFDYWGQGTLVTVSS
VL: DIQMTQSPSTLSASVGDRVTITCRASKSISKYLAWYQQKPGKAPKLLIYSGSTLQSGVPSRFSGSGSGTEFTLTISSLQPDDFATYYCQQHLWGPYTFGGGTKVEIK
notes: Fab on phage pIX
As to B10, the “% of Lc16Hc7” value came to 140%.

B11: Phage # 21 Fab (IL-13-142 library) (Fab, V domains shown)
VH: QVTLKESGPVLVKPTETLTLTCTVSGFSLSTYGMGVGWIRQPPGKALEWLAHIWWDDVKRYNPALKSRLTISKDTSKSQVVLTMTNMDPVDTATYYCARMGSDYDVWFDYWGQGTLVTVSS
VL: DIQMTQSPSTLSASVGDRVTITCRASKSISKYLAWYQQKPGKAPKLLIYSGSTLQSGVPSRFSGSGSGTEFTLTISSLQPDDFATYYCQQWSDGPYTFGGGTKVEIK
notes: Fab on phage pIX
As for B11, the “% of Lc16Hc7” value stood at 276%.

B12: Phage # 16 Fab (IL-13-142 library) (Fab, V domains shown)
VH: QVTLKESGPVLVKPTETLTLTCTVSGFSLSTYGMGVGWIRQPPGKALEWLAHIWWDDVKRYNPALKSRLTISKDTSKSQVVLTMTNMDPVDTATYYCARMGSDYDVWFDYWGQGTLVTVSS
VL: DIQMTQSPSTLSASVGDRVTITCRASKSISKYLAWYQQKPGKAPKLLIYSGSTLQSGVPSRFSGSGSGTEFTLTISSLQPDDFATYYCQQHVGGPYTFGGGTKVEIK
notes: Fab on phage pIX
Turning to B12, the “% of Lc16Hc7” value came to 206%.

B13: Phage # 31 Fab (IL-13-142 library) (Fab, V domains shown)
VH: QVTLKESGPVLVKPTETLTLTCTVSGFSLSTYGMGVGWIRQPPGKALEWLAHIWWDDVKRYNPALKSRLTISKDTSKSQVVLTMTNMDPVDTATYYCARMGSDYDVWFDYWGQGTLVTVSS
VL: DIQMTQSPSTLSASVGDRVTITCRASKSISKYLAWYQQKPGKAPKLLIYSGSTLQSGVPSRFSGSGSGTEFTLTISSLQPDDFATYYCQQHFRRPYTFGGGTKVEIK
notes: Fab on phage pIX
For the molecule B13, the “% of Lc16Hc7” value came to 288%.

B14: Phage # 36 Fab (IL-13-142 library) (Fab, V domains shown)
VH: QVTLKESGPVLVKPTETLTLTCTVSGFSLSTYGMGVGWIRQPPGKALEWLAHIWWDDVKRYNPALKSRLTISKDTSKSQVVLTMTNMDPVDTATYYCARMGSDYDVWFDYWGQGTLVTVSS
VL: DIQMTQSPSTLSASVGDRVTITCRASKSISKYLAWYQQKPGKAPKLLIYSGSTLQSGVPSRFSGSGSGTEFTLTISSLQPDDFATYYCQQHELGPYTFGGGTKVEIK
notes: Fab on phage pIX
Consider B14, for which the “% of Lc16Hc7” value was determined as 196%.

B15: Phage # 18 Fab (IL-13-142 library) (Fab, V domains shown)
VH: QVTLKESGPVLVKPTETLTLTCTVSGFSLSTYGMGVGWIRQPPGKALEWLAHIWWDDVKRYNPALKSRLTISKDTSKSQVVLTMTNMDPVDTATYYCARMGSDYDVWFDYWGQGTLVTVSS
VL: DIQMTQSPSTLSASVGDRVTITCRASKSISKYLAWYQQKPGKAPKLLIYSGSTLQSGVPSRFSGSGSGTEFTLTISSLQPDDFATYYCQQWDGGPYTFGGGTKVEIK
notes: Fab on phage pIX
Consider B15, for which the “% of Lc16Hc7” value was 231%.

B16: Phage # 09 Fab (IL-13-142 library) (Fab, V domains shown)
VH: QVTLKESGPVLVKPTETLTLTCTVSGFSLSTYGMGVGWIRQPPGKALEWLAHIWWDDVKRYNPALKSRLTISKDTSKSQVVLTMTNMDPVDTATYYCARMGSDYDVWFDYWGQGTLVTVSS
VL: DIQMTQSPSTLSASVGDRVTITCRASKSISKYLAWYQQKPGKAPKLLIYSGSTLQSGVPSRFSGSGSGTEFTLTISSLQPDDFATYYCQQHLDVPYTFGGGTKVEIK
notes: Fab on phage pIX
As for B16, the “% of Lc16Hc7” value came to 171%.

B17: Phage # 32 Fab (IL-13-142 library) (Fab, V domains shown)
VH: QVTLKESGPVLVKPTETLTLTCTVSGFSLSTYGMGVGWIRQPPGKALEWLAHIWWDDVKRYNPALKSRLTISKDTSKSQVVLTMTNMDPVDTATYYCARMGSDYDVWFDYWGQGTLVTVSS
VL: DIQMTQSPSTLSASVGDRVTITCRASKSISKYLAWYQQKPGKAPKLLIYSGSTLQSGVPSRFSGSGSGTEFTLTISSLQPDDFATYYCQQHLGTPYTFGGGTKVEIK
notes: Fab on phage pIX
On to B17, for which the “% of Lc16Hc7” value is 228%.

B18: Phage # 13 Fab (IL-13-142 library) (Fab, V domains shown)
VH: QVTLKESGPVLVKPTETLTLTCTVSGFSLSTYGMGVGWIRQPPGKALEWLAHIWWDDVKRYNPALKSRLTISKDTSKSQVVLTMTNMDPVDTATYYCARMGSDYDVWFDYWGQGTLVTVSS
VL: DIQMTQSPSTLSASVGDRVTITCRASKSISKYLAWYQQKPGKAPKLLIYSGSTLQSGVPSRFSGSGSGTEFTLTISSLQPDDFATYYCQQHEWGPYTFGGGTKVEIK
notes: Fab on phage pIX
In the case of B18, the “% of Lc16Hc7” value stood at 196%.

B19: Phage # 05 Fab (IL-13-142 library) (Fab, V domains shown)
VH: QVTLKESGPVLVKPTETLTLTCTVSGFSLSTYGMGVGWIRQPPGKALEWLAHIWWDDVKRYNPALKSRLTISKDTSKSQVVLTMTNMDPVDTATYYCARMGSDYDVWFDYWGQGTLVTVSS
VL: DIQMTQSPSTLSASVGDRVTITCRASKSISKYLAWYQQKPGKAPKLLIYSGSTLQSGVPSRFSGSGSGTEFTLTISSLQPDDFATYYCQQHVSGPYTFGGGTKVEIK
notes: Fab on phage pIX
As for B19, the “% of Lc16Hc7” value came to 320%.

B20: Phage # 04 Fab (IL-13-142 library) (Fab, V domains shown)
VH: QVTLKESGPVLVKPTETLTLTCTVSGFSLSTYGMGVGWIRQPPGKALEWLAHIWWDDVKRYNPALKSRLTISKDTSKSQVVLTMTNMDPVDTATYYCARMGSDYDVWFDYWGQGTLVTVSS
VL: DIQMTQSPSTLSASVGDRVTITCRASKSISKYLAWYQQKPGKAPKLLIYSGSTLQSGVPSRFSGSGSGTEFTLTISSLQPDDFATYYCQQQDLGPYTFGGGTKVEIK
notes: Fab on phage pIX
In the case of B20, the “% of Lc16Hc7” value stood at 127%.

B21: Phage # 35 Fab (IL-13-142 library) (Fab, V domains shown)
VH: QVTLKESGPVLVKPTETLTLTCTVSGFSLSTYGMGVGWIRQPPGKALEWLAHIWWDDVKRYNPALKSRLTISKDTSKSQVVLTMTNMDPVDTATYYCARMGSDYDVWFDYWGQGTLVTVSS
VL: DIQMTQSPSTLSASVGDRVTITCRASKSISKYLAWYQQKPGKAPKLLIYSGSTLQSGVPSRFSGSGSGTEFTLTISSLQPDDFATYYCQQHDRGPYTFGGGTKVEIK
notes: Fab on phage pIX
As to B21, the “% of Lc16Hc7” value came out at 296%.
